Measured values as given in patent US20030219853.

How the values were obtained:
[1] = target: bovine serum albumin (BSA) (UniProt P02769)
ovalbumin = ovalbumin (UniProt P01012)
β-casein = target: T1, β-casein (UniProt P02666)
T1 sequence: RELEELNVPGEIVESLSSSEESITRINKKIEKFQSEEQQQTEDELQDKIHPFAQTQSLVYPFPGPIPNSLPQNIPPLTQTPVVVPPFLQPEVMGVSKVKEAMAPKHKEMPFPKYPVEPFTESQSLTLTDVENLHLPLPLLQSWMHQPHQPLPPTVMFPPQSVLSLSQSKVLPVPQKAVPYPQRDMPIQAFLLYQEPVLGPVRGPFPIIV

[2] = target: recombinant serum albumin (UniProt P02768)

Sequence of bovine serum albumin (BSA) (P02769 25-607): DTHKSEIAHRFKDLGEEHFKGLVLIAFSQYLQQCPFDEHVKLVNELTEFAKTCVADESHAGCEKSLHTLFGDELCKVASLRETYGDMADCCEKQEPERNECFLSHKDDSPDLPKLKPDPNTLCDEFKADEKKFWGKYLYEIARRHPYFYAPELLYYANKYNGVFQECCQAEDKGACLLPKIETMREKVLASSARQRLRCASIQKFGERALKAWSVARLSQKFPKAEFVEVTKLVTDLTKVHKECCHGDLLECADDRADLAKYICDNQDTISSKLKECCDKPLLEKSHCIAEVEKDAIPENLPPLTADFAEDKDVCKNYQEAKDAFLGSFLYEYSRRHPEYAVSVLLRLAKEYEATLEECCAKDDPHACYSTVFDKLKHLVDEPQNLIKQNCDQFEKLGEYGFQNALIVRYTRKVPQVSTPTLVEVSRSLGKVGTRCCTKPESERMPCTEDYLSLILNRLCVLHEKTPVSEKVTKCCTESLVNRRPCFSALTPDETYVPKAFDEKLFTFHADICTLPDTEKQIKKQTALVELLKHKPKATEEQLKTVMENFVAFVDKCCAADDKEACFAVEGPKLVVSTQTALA
Sequence of ovalbumin (P01012 2-386): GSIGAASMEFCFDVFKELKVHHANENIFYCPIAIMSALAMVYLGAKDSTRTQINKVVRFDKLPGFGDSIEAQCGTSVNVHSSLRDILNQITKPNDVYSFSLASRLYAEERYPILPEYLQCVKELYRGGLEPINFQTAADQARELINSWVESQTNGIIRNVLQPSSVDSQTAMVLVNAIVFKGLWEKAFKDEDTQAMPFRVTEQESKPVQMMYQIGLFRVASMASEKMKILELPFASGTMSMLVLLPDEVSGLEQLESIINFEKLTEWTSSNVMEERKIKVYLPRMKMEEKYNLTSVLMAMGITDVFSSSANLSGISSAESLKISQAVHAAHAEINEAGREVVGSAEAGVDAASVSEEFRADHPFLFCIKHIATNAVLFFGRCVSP

B1: recombinant 6x-His-TGase fusion protein of Streptomyces mobaraensis ATCC 29032 (enzyme, UniProt P81453 77-407, looked up)
Protein-glutamine gamma-glutamyltransferase: DSDDRVTPPAEPLDRMPDPYRPSYGRAETVVNNYIRKWQQVYSHRDGRKQQMTEEQREWLSYGCVGVTWVNSGQYPTNRLAFASFDEDRFKNELKNGRPRSGETRAEFEGRVAKESFDEEKGFQRAREVASVMNRALENAHDESAYLDNLKKELANGNDALRNEDARSPFYSALRNTPSFKERNGGNHDPSRMKAVIYSKHFWSGQDRSSSADKRKYGDPDAFRPAPGTGLVDMSRDRNIPRSPTSPGEGFVNFDYGWFGAQTEADADKTVWTHGNHYHAPNGSLGAMHVYESKFRNWSEGYSDFDRGAYVITFIPKSWNTAPDKVKQGWP
modifications: N-terminal 6xHis tag
For B1, the “cross-linking on SDS-PAGE, native and modified (denatured, dialyzed) protein” value (from here on “cross-linking on SDS-PAGE”) [1] was “only the reactions containing the modified protein species of BSA, histine H3 protein, glucose oxidase, and ovalbumin were cross-linked by the purified recombinant SM TGase”, the “cross-linking on SDS-PAGE” value (histone H3 protein) was “only the reactions containing the modified protein species of BSA, histine H3 protein, glucose oxidase, and ovalbumin were cross-linked by the purified recombinant SM TGase; complete and partial cross-linking was both observed for native histine H3 protein” and the “cross-linking on SDS-PAGE” value (ovalbumin) was “only the reactions containing the modified protein species of BSA, histine H3 protein, glucose oxidase, and ovalbumin were cross-linked by the purified recombinant SM TGase”. The “cross-linking of a mixture of β-casein and glucose oxidase on SDS-PAGE” value (β-casein) was “both protein species can be cross-linked by the purified recombinant SM TGase, as indicated by the disappearance of the two monomer bands”, the “cross-linking of β-casein on SDS-PAGE” value (β-casein) was “the cross-linked (CL) β-casein migrated as a smear on the SDS-PAGE gel indicating a mixture of high molecular weight polymers of different length” and the “cross-linking of β-casein on SDS-PAGE, 0 mM DTT” value (β-casein) was “in the absence of DTT (lane 1 and 2), the recombinant SM TGase had no cross-linking activity on β-casein and β-casein runs as a monomer”. For the same protein, the “cross-linking of β-casein on SDS-PAGE, about 2 mM DTT” value (β-casein) was “the recombinant SM TGase was activated and β-casein run as a mixture of cross-linked polymer and monomer”, the “cross-linking of β-casein on SDS-PAGE, about 10 mM DTT” value (β-casein) was “the catalytic cross-linking activity of SM TGase resulted in cross-linking of all detectable β-casein substrates in the reaction” and the “cross-linking of recombinant serum albumin on SDS-PAGE” value [2] was “the cross-linking reaction containing recombinant serum albumin revealed a mixture of very high molecular weight polymers of different length”. For the same protein, the “cross-linking of BSA5 peptide on SDS-PAGE” value (BSA5 peptide) was “increased amount of recombinant SM TGase corresponding to an increase in cross-linked (CL) BSA5 peptide, which run as a large molecular weight polymer on the top of the separating gel”.
